Experimental data from the supplement of paper PMC5998384.

What was measured:
[1] = system: HeLa Kyoto; test: solubility change mitosis vs G1/S (difference of NP-40 vs SDS log2 ratios) (log2 ratio difference); higher = more soluble in mitosis
[2] = system: HeLa Kyoto; test: solubility in G1/S (NP-40 vs SDS abundance) (log2 ratio); higher = more soluble; settings: cell cycle stage: G1/S
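Wherever solubility change mitosis vs G1/S (difference of NP-40 vs SDS log2 ratios) is given: synchronized HeLa Kyoto cells (double thymidine block for G1/S, nocodazole release for mitosis), protein amounts in NP-40 versus SDS lysates quantified by mass spectrometry, three biological replicates.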
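Wherever solubility in G1/S (NP-40 vs SDS abundance) is given: HeLa Kyoto cells arrested at G1/S by double thymidine block, proteins quantified by TMT10plex mass spectrometry in mild NP-40 versus SDS extracts, three biological replicates.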

Chain of KLF16 (chain, as listed by the source): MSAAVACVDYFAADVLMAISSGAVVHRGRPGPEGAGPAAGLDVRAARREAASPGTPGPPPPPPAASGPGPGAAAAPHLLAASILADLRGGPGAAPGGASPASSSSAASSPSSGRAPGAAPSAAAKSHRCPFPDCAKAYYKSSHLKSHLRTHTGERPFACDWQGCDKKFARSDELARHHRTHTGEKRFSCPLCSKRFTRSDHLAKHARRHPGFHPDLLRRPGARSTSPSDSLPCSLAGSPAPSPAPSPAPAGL
Chain of MAFK (chain, as listed by the source): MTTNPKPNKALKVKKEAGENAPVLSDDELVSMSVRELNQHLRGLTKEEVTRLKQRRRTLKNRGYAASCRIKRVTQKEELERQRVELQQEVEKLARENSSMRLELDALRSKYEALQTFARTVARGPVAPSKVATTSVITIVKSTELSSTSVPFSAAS

MEEVTTCSFNSPLFRQEDDRGITYRIPALLYIPPTHTFLAFAEKRSTRRDEDALHLVLRRGLRIGQLVQWGPLKPLMEATLPGHRTMNPCPVWEQKSGCVFLFFICVRGHVTERQQIVSGRNAARLCFIYSQDAGCSWSEVRDLTEEVIGSELKHWATFAVGPGHGIQLQSGRLVIPAYTYYIPSWFFCFQLPCKTRPHSLMIYSDDLGVTWHHGRLIRPMVTVECEVAEVTGRAGHPVLYCSARTPNRCRAEALSTDHGEGFQRLALSRQLCEPPHGCQGSVVSFRPLEIPHRCQDSSSKDAPTIQQSSPGSSLRLEEEAGTPSESWLLYSHPTSRKQRVDLGIYLNQTPLEAACWSRPWILHCGPCGYSDLAALEEEGLFGCLFECGTKQECEQIAFRLFTHREILSHLQGDCTSPGRNPSQFKSN [NEU3]
solubility change mitosis (log2) [1]: -0.0358
solubility in G1/S (log2) [2]: -0.0555

SYNM
solubility change mitosis (log2) [1]: 0.752
solubility in G1/S (log2) [2]: -0.94

MAPVRRSAKWRPGGIEARGEGVSTVGYRNKNVRQKTWRPNHPQAFVGSVREGQGFAFRRKLKIQQSYKKLLRKEKKAQTSLESQFTDRYPDNLKHLYLAEEERHRKQARKVDHPLSEQVHQPLLEEQCSIDEPLFEDQCSFDQPQPEEQCIKTVNSFTIPKKNKKKTSNQKAQEEYEQIQAKRAAKKQEFERRKQEREEAQRQYKKKKMEVFKILNKKTKKGQPNLNVQMEYLLQKIQEKC [CCDC59]
solubility change mitosis (log2) [1]: 0.278
solubility in G1/S (log2) [2]: -0.512

MAFK
solubility change mitosis (log2) [1]: 0.364
solubility in G1/S (log2) [2]: 0.335

MGSAFERVVRRVVQELDHGGEFIPVTSLQSSTGFQPYCLVVRKPSSSWFWKPRYKCVNLSIKDILEPDAAEPDVQRGRSFHFYDAMDGQIQGSVELAAPGQAKIAGGAAVSDSSSTSMNVYSLSVDPNTWQTLLHERHLRQPEHKVLQQLRSRGDNVYVVTEVLQTQKEVEVTRTHKREGSGRFSLPGATCLQGEGQGHLSQKKTVTIPSGSTLAFRVAQLVIDSDLDVLLFPDKKQRTFQPPATGHKRSTSEGAWPQLPSGLSMMRCLHNFLTDGVPAEGAFTEDFQGLRAEVETISKELELLDRELCQLLLEGLEGVLRDQLALRALEEALEQGQSLGPVEPLDGPAGAVLECLVLSSGMLVPELAIPVVYLLGALTMLSETQHKLLAEALESQTLLGPLELVGSLLEQSAPWQERSTMSLPPGLLGNSWGEGAPAWVLLDECGLELGEDTPHVCWEPQAQGRMCALYASLALLSGLSQEPH [GSDMD]
solubility change mitosis (log2) [1]: -0.218
solubility in G1/S (log2) [2]: 0.121

MKDVDNLKSIKEEWVCETGSDNQPLGNNQQSNCEYFVDSLFEEAQKVSSKCVSPAEQKKQVDVNIKLWKNGFTVNDDFRSYSDGASQQFLNSIKKGELPSELQGIFDKEEVDVKVEDKKNEICLSTKPVFQPFSGQGHRLGSATPKIVSKAKNIEVENKNNLSAVPLNNLEPITNIQIWLANGKRIVQKFNITHRVSHIKDFIEKYQGSQRSPPFSLATALPVLRLLDETLTLEEADLQNAVIIQRLQKTASFRELSEH [UBXN2A]
solubility change mitosis (log2) [1]: 0.0265
solubility in G1/S (log2) [2]: 0.0566

MQLRKMQTVKKEQASLDASSNVDKMMVLNSALTEVSEDSTTGEELLLSEGSVGKNKSSACRRKREFIPDEKKDAMYWEKRRKNNEAAKRSREKRRLNDLVLENKLIALGEENATLKAELLSLKLKFGLISSTAYAQEIQKLSNSTAVYFQDYQTSKSNVSSFVDEHEPSMVSSSCISVIKHSPQSSLSDVSEVSSVEHTQESSVQGSCRSPENKFQIIKQEPMELESYTREPRDDRGSYTASIYQNYMGNSFSGYSHSPPLLQVNRSSSNSPRTSETDDGVVGKSSDGEDEQQVPKGPIHSPVELKHVHATVVKVPEVNSSALPHKLRIKAKAMQIKVEAFDNEFEATQKLSSPIDMTSKRHFELEKHSAPSMVHSSLTPFSVQVTNIQDWSLKSEHWHQKELSGKTQNSFKTGVVEMKDSGYKVSDPENLYLKQGIANLSAEVVSLKRLIATQPISASDSG [NFIL3]
solubility change mitosis (log2) [1]: 0.104
solubility in G1/S (log2) [2]: 0.00864

MSFRGGGRGGFNRGGGGGGFNRGGSSNHFRGGGGGGGGGNFRGGGRGGFGRGGGRGGFNKGQDQGPPERVVLLGEFLHPCEDDIVCKCTTDENKVPYFNAPVYLENKEQIGKVDEIFGQLRDFYFSVKLSENMKASSFKKLQKFYIDPYKLLPLQRFLPRPPGEKGPPRGGGRGGRGGGRGGGGRGGGRGGGFRGGRGGGGGGFRGGRGGGFRGRGH [GAR1]
solubility change mitosis (log2) [1]: 1.41
solubility in G1/S (log2) [2]: -1.36

MWEKMETKTIVYDLDTSGGLMEQIQALLAPPKTDEAEKRSRKPEKEPRRSGRATNHDSCDSCKEGGDLLCCDHCPAAFHLQCCNPPLSEEMLPPGEWMCHRCTVRRKKREQKKELGHVNGLVDKSGKRTTSPSSDTDLLDRSASKTELKAIAHARILERRASRPGTPTSSASTETPTSEQNDVDEDIIDVDEEPVAAEPDYVQPQLRRPFELLIAAAMERNPTQFQLPNELTCTTALPGSSKRRRKEETTGKNVKKTQHELDHNGLVPLPVKVCFTCNRSCRVAPLIQCDYCPLLFHMDCLEPPLTAMPLGRWMCPNHIEHVVLNQKNMTLSNRCQVFDRFQDTVSQHVVKVDFLNRIHKKHPPNRRVLQSVKRRSLKVPDAIKSQYQFPPPLIAPAAIRDGELICNGIPEESQMHLLNSEHLATQAEQQEWLCSVVALQCSILKHLSAKQMPSHWDSEQTEKADIKPVIVTDSSVTTSLQTADKTPTPSHYPLSCPSGISTQNSLSCSPPHQSPALEDIGCSSCAEKSKKTPCGTANGPVNTEVKANGPHLYSSPTDSTDPRRLPGANTPLPGLSHRQGWPRPLTPPAAGGLQNHTVGIIVKTENATGPSSCPQRSLVPVPSLPPSIPSSCASIENTSTLQRKTVQSQIGPPLTDSRPLGSPPNATRVLTPPQAAGDGILATTANQRFSSPAPSSDGKVSPGTLSIGSALTVPSFPANSTAMVDLTNSLRAFMDVNGEIEINMLDEKLIKFLALQRIHQLFPSRVQPSPGSVGTHQLASGGHHIEVQRKEVQARAVFYPLLGLGGAVNMCYRTLYIGTGADMDVCLTNYGHCNYVSGKHACIFYDENTKHYELLNYSEHGTTVDNVLYSCDFSEKTPPTPPSSIVAKVQSVIRRRRHQKQDEEPSEEAAMMSSQAQGPQRRPCNCKASSSSLIGGSGAGWEGTALLHHGSYIKLGCLQFVFSITEFATKQPKGDASLLQDGVLAEKLSLKPHQGPVLRSNSVP [PHF12]
solubility change mitosis (log2) [1]: 0.237
solubility in G1/S (log2) [2]: -0.326

MASSEVARHLLFQSHMATKTTCMSSQGSDDEQIKRENIRSLTMSGHVGFESLPDQLVNRSIQQGFCFNILCVGETGIGKSTLIDTLFNTNFEDYESSHFCPNVKLKAQTYELQESNVQLKLTIVNTVGFGDQINKEESYQPIVDYIDAQFEAYLQEELKIKRSLFTYHDSRIHVCLYFISPTGHSLKTLDLLTMKNLDSKVNIIPVIAKADTVSKTELQKFKIKLMSELVSNGVQIYQFPTDDDTIAKVNAAMNGQLPFAVVGSMDEVKVGNKMVKARQYPWGVVQVENENHCDFVKLREMLICTNMEDLREQTHTRHYELYRRCKLEEMGFTDVGPENKPVSVQETYEAKRHEFHGERQRKEEEMKQMFVQRVKEKEAILKEAERELQAKFEHLKRLHQEERMKLEEKRRLLEEEIIAFSKKKATSEIFHSQSFLATGSNLRKDKDRKNSNFL [SEPT10]
solubility change mitosis (log2) [1]: -0.0981
solubility in G1/S (log2) [2]: -0.132

CROCC
solubility change mitosis (log2) [1]: -0.109
solubility in G1/S (log2) [2]: 0.091

MDSSIHLSSLISRHDDEATRTSTSEGLEEGEVEGETLLIVESEDQASVDLSHDQSGDSLNSDEGDVSWMEEQLSYFCDKCQKWIPASQLREQLSYLKGDNFFRFTCSDCSADGKEQYERLKLTWQQVVMLAMYNLSLEGSGRQGYFRWKEDICAFIEKHWTFLLGNRKKTSTWWSTVAGCLSVGSPMYFRSGAQEFGEPGWWKLVHNKPPTMKPEGEKLSASTLKIKAASKPTLDPIITVEGLRKRASRNPVESAMELKEKRSRTQEAKDIRRAQKEAAGFLDRSTSSTPVKFISRGRRPDVILEKGEVIDFSSLSSSDRTPLTSPSPSPSLDFSAPGTPASHSATPSLLSEADLIPDVMPPQALFHDDDEMEGDGVIDPGMEYVPPPAGSVASGPVVGVRKKVRGPEQIKQEVESEEEKPDRMDIDSEDTDSNTSLQTRAREKRKPQLEKDTKPKEPRYTPVSIYEEKLLLKRLEACPGAVAMTPEARRLKRKLIVRQAKRDRGLPLFDLDQVVNAALLLVDGIYGAKEGGISRLPAGQATYRTTCQDFRILDRYQTSLPSRKGFRHQTTKFLYRLVGSEDMAVDQSIVSPYTSRILKPYIRRDYETKPPKLQLLSQIRSHLHRSDPHWTPEPDAPLDYCYVRPNHIPTINSMCQEFFWPGIDLSECLQYPDFSVVVLYKKVIIAFGFMVPDVKYNEAYISFLFVHPEWRRAGIATFMIYHLIQTCMGKDVTLHVSASNPAMLLYQKFGFKTEEYVLDFYDKYYPLESTECKHAFFLRLRR [CSRP2BP]
solubility change mitosis (log2) [1]: 0.153
solubility in G1/S (log2) [2]: 0.391

MTLKASEGESGGSMHTALSDLYLEHLLQKRSRPEAVSHPLNTVTEDMYTNGSPAPGSPAQVKGQEVRKVRLIQFEKVTEEPMGITLKLNEKQSCTVARILHGGMIHRQGSLHVGDEILEINGTNVTNHSVDQLQKAMKETKGMISLKVIPNQQSRLPALQMFMRAQFDYDPKKDNLIPCKEAGLKFATGDIIQIINKDDSNWWQGRVEGSSKESAGLIPSPELQEWRVASMAQSAPSEAPSCSPFGKKKKYKDKYLAKHSSIFDQLDVVSYEEVVRLPAFKRKTLVLIGASGVGRSHIKNALLSQNPEKFVYPVPYTTRPPRKSEEDGKEYHFISTEEMTRNISANEFLEFGSYQGNMFGTKFETVHQIHKQNKIAILDIEPQTLKIVRTAELSPFIVFIAPTDQGTQTEALQQLQKDSEAIRSQYAHYFDLSLVNNGVDETLKKLQEAFDQACSSPQWVPVSWVY [MPP1]
solubility change mitosis (log2) [1]: -0.0545
solubility in G1/S (log2) [2]: 0.098

KLF16
solubility change mitosis (log2) [1]: 0.0196
solubility in G1/S (log2) [2]: 0.106

MAVLGVQLVVTLLTATLMHRLAPHCSFARWLLCNGSLFRYKHPSEEELRALAGKPRPRGRKERWANGLSEEKPLSVPRDAPFQLETCPLTTVDALVLRFFLEYQWFVDFAVYSGGVYLFTEAYYYMLGPAKETNIAVFWCLLTVTFSIKMFLTVTRLYFSAEEGGERSVCLTFAFLFLLLAMLVQVVREETLELGLEPGLASMTQNLEPLLKKQGWDWALPVAKLAIRVGLAVVGSVLGAFLTFPGLRLAQTHRDALTMSEDRPMLQFLLHTSFLSPLFILWLWTKPIARDFLHQPPFGETRFSLLSDSAFDSGRLWLLVVLCLLRLAVTRPHLQAYLCLAKARVEQLRREAGRIEAREIQQRVVRVYCYVTVVSLQYLTPLILTLNCTLLLKTLGGYSWGLGPAPLLSPDPSSASAAPIGSGEDEVQQTAARIAGALGGLLTPLFLRGVLAYLIWWTAACQLLASLFGLYFHQHLAGS [TMEM161A]
solubility change mitosis (log2) [1]: -0.0501
solubility in G1/S (log2) [2]: -0.184
